Laboratory results from the supplement of paper PMC7125110.
± gives the standard error. For some assays here: This sample holds only a part of the variants without activity.

B1: glmS ribozyme (parent)
chain: AUAAAAGCGCCAGAACUACAGAAAUGUAGUUGACGAGGAGGAGGUUUAUCGAAUUUUCGGCGGAUGCCUCCAAA

Assays:
Details in all cases: with glucosamine-6-phosphate
[1] = variants of: B1; test: kcat; higher = faster cleavage; RNA array
How it was run: (§1)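 Weighted Michaelis–Menten fits across concentrations supplied kcat and KM, based on kobs from one- or two-exponential decay fits to normalised per-tile medians. The data came from barcoded ribozyme variants transcribed in situ by E. coli RNA polymerase on sequenced MiSeq chips and tracked at 37 °C by a hybridised Cy3 probe. Glucosamine-6-phosphate (40 μM to 10 mM) in HEPES/KCl/Mg(OAc)2 buffer was flowed in.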

[2] = variants of: B1; test: KM; higher = weaker cofactor use; RNA array
How it was run: as §1

[3] = variants of: B1; test: self-cleavage kobs at 160 uM GlcN6P; higher = faster cleavage; RNA array
How it was run: as §1

[4] = variants of: B1; test: self-cleavage kobs at 640 uM GlcN6P; higher = faster cleavage; RNA array
How it was run: as §1

[5] = variants of: B1; test: self-cleavage kobs at 2500 uM GlcN6P; higher = faster cleavage; RNA array
How it was run: as §1

[6] = variants of: B1; test: self-cleavage kobs at 40 uM GlcN6P; higher = faster cleavage; RNA array
How it was run: as §1

[7] = variants of: B1; test: self-cleavage kobs at 10000 uM GlcN6P; higher = faster cleavage; RNA array
How it was run: as §1

## U57A C61G
[1]
  kcat: 1.36e-05 ± 5.5e-06 s⁻¹

## G37C C68G
[1]
  kcat: 1.8e-05 ± 3.8e-06 s⁻¹

## U49A A53G
[1]
  kcat: 2.25e-05 ± 2.1e-06 s⁻¹
[2]
  KM: 3.41 ± 1 mM

## G29U G38A
[1]
  kcat: < 1e-05 s⁻¹
[3]
  self-cleavage kobs at 160 uM GlcN6P: < 1e-05 s⁻¹
[4]
  self-cleavage kobs at 640 uM GlcN6P: < 1e-05 s⁻¹
[5]
  self-cleavage kobs at 2500 uM GlcN6P: < 1e-05 s⁻¹

## A42U C71U
[1]
  kcat: 0.000154 ± 2e-05 s⁻¹
[2]
  KM: 1.32 ± 0.4 mM
[6]
  self-cleavage kobs at 40 uM GlcN6P: < 1e-05 s⁻¹
[4]
  self-cleavage kobs at 640 uM GlcN6P: 4.75e-05 ± 6.4e-06 s⁻¹
[5]
  self-cleavage kobs at 2500 uM GlcN6P: 0.000122 ± 1.6e-05 s⁻¹
[7]
  self-cleavage kobs at 10000 uM GlcN6P: 0.000129 ± 1.4e-05 s⁻¹

## U45G C58A
[1]
  kcat: 0.000297 ± 2.9e-05 s⁻¹
[2]
  KM: 3.17 ± 0.62 mM
[4]
  self-cleavage kobs at 640 uM GlcN6P: 4.61e-05 ± 9.8e-06 s⁻¹
[5]
  self-cleavage kobs at 2500 uM GlcN6P: 0.000147 ± 2.3e-05 s⁻¹
[7]
  self-cleavage kobs at 10000 uM GlcN6P: 0.00022 ± 2.6e-05 s⁻¹

## C16G G51C
[1]
  kcat: < 1e-05 s⁻¹
[6]
  self-cleavage kobs at 40 uM GlcN6P: < 1e-05 s⁻¹

## U30C A39C
[1]
  kcat: 0.000139 ± 1.1e-05 s⁻¹
[2]
  KM: 4.21 ± 0.82 mM
[5]
  self-cleavage kobs at 2500 uM GlcN6P: 5.33e-05 ± 1e-05 s⁻¹
[7]
  self-cleavage kobs at 10000 uM GlcN6P: 9.75e-05 ± 9.4e-06 s⁻¹

## U46G C70A
[1]
  kcat: 0.000224 ± 6.8e-05 s⁻¹
[6]
  self-cleavage kobs at 40 uM GlcN6P: 4.78e-05 ± 1.2e-05 s⁻¹
[3]
  self-cleavage kobs at 160 uM GlcN6P: 4.54e-05 ± 1.6e-05 s⁻¹
[4]
  self-cleavage kobs at 640 uM GlcN6P: 0.000153 ± 2.5e-05 s⁻¹
[5]
  self-cleavage kobs at 2500 uM GlcN6P: 0.000395 ± 7.2e-05 s⁻¹
[7]
  self-cleavage kobs at 10000 uM GlcN6P: 0.000188 ± 3.1e-05 s⁻¹

## G41C C71G
[1]
  kcat: 6.73e-05 ± 1.3e-05 s⁻¹
[5]
  self-cleavage kobs at 2500 uM GlcN6P: 6.12e-05 ± 7.2e-06 s⁻¹
[7]
  self-cleavage kobs at 10000 uM GlcN6P: 5.71e-05 ± 4.9e-06 s⁻¹

## G38U C50G
[1]
  kcat: 4.08e-05 ± 1.4e-05 s⁻¹
[5]
  self-cleavage kobs at 2500 uM GlcN6P: 6.94e-05 ± 1.4e-05 s⁻¹

## A12G G41U
[1]
  kcat: 0.000763 ± 4.6e-05 s⁻¹
[4]
  self-cleavage kobs at 640 uM GlcN6P: 4.77e-05 ± 1.4e-05 s⁻¹
[5]
  self-cleavage kobs at 2500 uM GlcN6P: 0.000147 ± 2.1e-05 s⁻¹
[7]
  self-cleavage kobs at 10000 uM GlcN6P: 0.000377 ± 4.1e-05 s⁻¹

## A39C G43U C68U
[1]
  kcat: 9.32e-05 ± 1.5e-05 s⁻¹
[2]
  KM: 1.78 ± 0.81 mM
[5]
  self-cleavage kobs at 2500 uM GlcN6P: 5.95e-05 ± 1.4e-05 s⁻¹
[7]
  self-cleavage kobs at 10000 uM GlcN6P: 7.63e-05 ± 1.8e-05 s⁻¹

## U45A C58G
[1]
  kcat: 0.000316 ± 8.7e-05 s⁻¹
[5]
  self-cleavage kobs at 2500 uM GlcN6P: 0.000129 ± 3.2e-05 s⁻¹
[7]
  self-cleavage kobs at 10000 uM GlcN6P: 0.000222 ± 4.9e-05 s⁻¹

## G40U U56C
[1]
  kcat: 1.13e-05 ± 5.2e-06 s⁻¹
[6]
  self-cleavage kobs at 40 uM GlcN6P: < 1e-05 s⁻¹

## U54A C58A
[1]
  kcat: 0.000802 ± 0.00016 s⁻¹
[2]
  KM: 5.45 ± 1.7 mM
[3]
  self-cleavage kobs at 160 uM GlcN6P: 2.83e-05 ± 1.3e-05 s⁻¹
[4]
  self-cleavage kobs at 640 uM GlcN6P: 9.65e-05 ± 1.3e-05 s⁻¹
[5]
  self-cleavage kobs at 2500 uM GlcN6P: 0.000217 ± 2.9e-05 s⁻¹
[7]
  self-cleavage kobs at 10000 uM GlcN6P: 0.000547 ± 5.7e-05 s⁻¹

## G13A G40A
[1]
  kcat: 0.000179 ± 1.9e-05 s⁻¹
[2]
  KM: 6.1 ± 1.2 mM
[5]
  self-cleavage kobs at 2500 uM GlcN6P: 5.48e-05 ± 1.2e-05 s⁻¹
[7]
  self-cleavage kobs at 10000 uM GlcN6P: 0.00011 ± 1.8e-05 s⁻¹

## A53U U57G
[1]
  kcat: 0.000158 ± 2.7e-05 s⁻¹
[2]
  KM: 4.01 ± 1.6 mM
[4]
  self-cleavage kobs at 640 uM GlcN6P: 3.61e-05 ± 1.4e-05 s⁻¹
[5]
  self-cleavage kobs at 2500 uM GlcN6P: 5.56e-05 ± 1e-05 s⁻¹
[7]
  self-cleavage kobs at 10000 uM GlcN6P: 0.000115 ± 1.4e-05 s⁻¹

## G60C C70G
[1]
  kcat: 2.59e-05 ± 9.4e-06 s⁻¹
[6]
  self-cleavage kobs at 40 uM GlcN6P: < 1e-05 s⁻¹
[7]
  self-cleavage kobs at 10000 uM GlcN6P: < 1e-05 s⁻¹

## G29C G37A
[1]
  kcat: 0.000262 ± 4.4e-05 s⁻¹
[2]
  KM: 6.2 ± 1.7 mM
[5]
  self-cleavage kobs at 2500 uM GlcN6P: 7.11e-05 ± 1.8e-05 s⁻¹
[7]
  self-cleavage kobs at 10000 uM GlcN6P: 0.000165 ± 3.8e-05 s⁻¹
